± gives the half width of the 95% confidence interval.
What was measured:
[1] = folding stability dG unfold from chymotrypsin proteolysis; higher = more stable
Summary of the method: (§1)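 Bayesian fitting of sequencing counts gave K50 for each design. Unfolding free energy followed by setting this against a sequence-predicted unfolded-state K50 and a shared folded-state K50, either per protease or with trypsin and chymotrypsin combined. The designs, under 80 residues and lacking cysteine, were digested in a PA-tagged cDNA display format at 11 threefold-diluted protease concentrations and without protease, and only those with AlphaFold2 dimer inter-PAE above 15 were kept.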

[2] = folding stability dG unfold (combined trypsin and chymotrypsin); higher = more stable
Summary of the method: as §1

[3] = folding stability dG unfold from trypsin proteolysis; higher = more stable
Summary of the method: as §1

Row | Sequence | folding stability dG unfold [1] [kcal/mol] | folding stability dG unfold [2] [kcal/mol] | folding stability dG unfold [3] [kcal/mol]
1 | SAGGSAGGSAGGDERVEVFEFDAPGGYRVRLVDFGDLALVAFISPDGRPAVIPVPRELLSAGGSAGGSAGGS [r10_1075_TrMRF] | 1.87 ± 0.035 | 1.41 ± 0.044 | 0.529 ± 0.041
2 | SAGGSAGGSAGGDESYRKLLEELPLPVTEIVVETVPLPETDEPITVVTPKNPDGKEVTLGSAGGSAGGSAGG [r7_337_JUSTAS] | -0.557 ± 0.084 | -0.284 ± 0.14 | -0.0426 ± 0.037
3 | SAGGSAGGSAGGDEVLVFETETVELEVEVRTLNEDGEETTEKEKVTLTVTRVVRLPPGLLSAGGSAGGSAGG [r7_926_TrROS_Hall] | 1.15 ± 0.24 | 0.959 ± 0.44 | 0.827 ± 0.083
4 | SAGGSAGGSAGGDKDDKPPVRTVTVMHMFFDENGWLVKFDITFTANGQIEIDWGPVPLPSAGGSAGGSAGGS [r10_682_TrROS] | 3.8 ± 0.42 | 3.52 ± 0.5 | 2.96 ± 0.3
5 | SAGGSAGGSAGGDKKDPGQPRQEVEIEIPVYDPNGKPKGPIEITMPAGQSLDEIADEIFNSAGGSAGGSAGG [r7_110_TrROS] | 1.05 ± 0.049 | 0.937 ± 0.13 | 0.758 ± 0.068
6 | SAGGSAGGSAGGDKNKPPKLKVKLKIEFPFTLPDGVKVRLEVEIDLDSDVIEPRAEVIDSSAGGSAGGSAGG [r7_213_TrMRF] | 2.98 ± 0.086 | 2.64 ± 0.081 | 1.76 ± 0.035
7 | SAGGSAGGSAGGDLVITEVRVEFDPKDGTLRVTARFELPNTGETVEVTLEFEIPYPDGASAGGSAGGSAGGS [r10_296_TrMRF] | 2.86 ± 0.15 | 2.85 ± 0.32 | 2.99 ± 0.35
8 | SAGGSAGGSAGGDNFEIEPDISWNPDYGYISIDWTVTIGGKEQPFTIMIPVRLPPPPEDDSAGGSAGGSAGG [r7_413_TrROS] | 0.712 ± 0.15 | 1.14 ± 0.22 | 1.41 ± 0.099
9 | SAGGSAGGSAGGDPKAKPKKYYLIDLNARLVGVEVDPETGELTVTYELEGATLTLRFEGSAGGSAGGSAGGS [r10_962_TrMRF] | 2.78 ± 0.045 | 2.65 ± 0.14 | 2.24 ± 0.1
10 | SAGGSAGGSAGGDPLPVTFTIPLEDDTTAKAVLSGDLVEVTIPNGKKYVLIPNPAVLGSSAGGSAGGSAGGS [r10_1176_TrMRF] | -0.232 ± 0.22 | -0.216 ± 0.15 | -0.144 ± 0.11
11 | SAGGSAGGSAGGDPNDKPKEERRIKIKVRPTNVQRDPDNGMLWYSWRLEGLSITIMIPASAGGSAGGSAGGS [r10_962_TrROS] | 3.43 ± 0.035 | 2.85 ± 0.1 | 1.86 ± 0.08
12 | SAGGSAGGSAGGEDLKINIKISEITFSPDGWITMSMRGGNGRWFQHTIKVKIKLPPGDPSAGGSAGGSAGGS [r10_281_TrROS] | 3.15 ± 0.038 | 3 ± 0.12 | 2.77 ± 0.14
13 | SAGGSAGGSAGGEEEYVTLTIKVYDPKTREPVKEITIVLPKKNMTPEQLRELLKELGIEVSAGGSAGGSAGG [r7_903_TrROS_Hall] | 3.01 ± 0.083 | 2.98 ± 0.23 | 2.87 ± 0.12
14 | SAGGSAGGSAGGEEKEVYLVRFRRPDGSEVTVVAPWEDLEEIVKSLPEAVEVEVEKAPLSAGGSAGGSAGGS [r10_437_TrMRF] | 2.22 ± 0.089 | 1.98 ± 0.17 | 1.58 ± 0.042
15 | SAGGSAGGSAGGEIKVEVVPVDGKLRVKVTLEDGEKIEIEVPENTTLDELKKLAEELAKKSAGGSAGGSAGG [r7_265_TrROS_Hall] | 2.12 ± 0.077 | 1.94 ± 0.11 | 1.55 ± 0.083
16 | SAGGSAGGSAGGEKIIKVHPDNIEAFLKEAKEKGYKVILFPNGEAIVNGKKVKIISDPKSAGGSAGGSAGGS [r10_930_TrMRF] | 1.73 ± 0.074 | 1.74 ± 0.18 | 1.36 ± 0.12
17 | SAGGSAGGSAGGEKKWIFMVSFRHPDGKERKFTFPWNDLEEIKENLPGIDDVEIEWMPMSAGGSAGGSAGGS [r10_437_TrROS] | 0.961 ± 0.28 | 0.773 ± 0.19 | -0.025 ± 0.2
18 | SAGGSAGGSAGGEKTIVISEEEAEKLAKELEKKGLTVERKPDGTLKVNGKEIRIIVVEPSAGGSAGGSAGGS [r10_930_TrROS_Hall] | 0.858 ± 0.07 | 0.814 ± 0.17 | 0.758 ± 0.077
